{"source": "paper PMC11761039", "key": {"[1]": {"biological_target": "MBP-tagged G2L4 RT dimer interface NTE + Thumb mutant (R12/Y15/R398A)", "test": "native gel or EMSA"}, "[2]": {"biological_target": "MBP-tagged G2L4 RT dimer interface Thumb mutant (R397/R398/R404A)", "test": "native gel or EMSA"}, "[3]": {"biological_target": "MBP-tagged wild-type G2L4 RT", "test": "SEC"}}}
{"substance": "MBP-tagged G2L4 RT dimer interface NTE + Thumb mutant (R12/Y15/R398A) (enzyme)", "values": [{"measurement": "proportion of monomers", "setting": "[1]", "result": 36, "unit": "%"}]}
{"substance": "MBP-tagged G2L4 RT dimer interface Thumb mutant (R397/R398/R404A) (enzyme)", "values": [{"measurement": "proportion of monomers", "setting": "[2]", "result": 25, "unit": "%"}]}
{"substance": "MBP-tagged wild-type G2L4 RT (enzyme)", "values": [{"measurement": "stoichiometry N", "setting": "[3]", "result": 2}]}
